Laboratory results as given in patent publication US20050153377A1 (ORIENTAL YEAST CO., LTD., priority 1999, published 2005).
One block for each molecule: values may come before it.

Assays:
[1] = molecular target: T1, CRP (Homo sapiens, UniProt P02741); test: CRP activity to bind to immobilized PC-BSA, PC-antibody method (C); type: binding; conditions: Eu3+-labeled anti-CRP antibody, FIG. 6
T1 construct: purchased Oriental Yeast Co., Ltd. (Japan); host or cells: Escherichia coli
T1 sequence (P02741 19-224): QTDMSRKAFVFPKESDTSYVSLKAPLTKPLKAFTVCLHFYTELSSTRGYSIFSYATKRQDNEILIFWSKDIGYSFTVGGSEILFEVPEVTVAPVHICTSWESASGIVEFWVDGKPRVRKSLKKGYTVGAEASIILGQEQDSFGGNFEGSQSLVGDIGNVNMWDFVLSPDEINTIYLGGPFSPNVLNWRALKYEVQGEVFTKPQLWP
Experimental: Because it was difficult to immobilize PC-BSA without modification of the microtiter plate, PC-BSA was immobilized on the wells of a microtiter plate by using the PVLA method [Suzuki, N., et al., (1997) Anal. Biochem. 247, 4-12-416]. PVLA (2 mg) was suspended in 1 ml of water by ultrasonication; the resulting PVLA suspension of 40 μl was added to each well, for overnight incubation at 4° C. 1 mM NaIO4 solution was added in 50 μl-portions to each well, and the plate was incubated in darkness at ambient temperature for one hour. After the plate was washed, the PC-BSA solution (100 ng protein in 40 μl of water) was added to each well, followed by mixing with 5 μl of 2% (v/v) borane-pyridine complex, for incubation at 37° C. for 2 hours. The wells were blocked through incubation with 1M glycylglycine (40 μl) at 37° C. for 4 hours, and then followed by incubation with 200 μl of TBS containing 2% (w/v) BSA at 4° C. overnight. After the added solutions were removed at the individual stages of the following method, the wells were washed six times with 200 μl of TBS.
So as to immobilize PC58- or PC7-BSA solution (40 μl containing […] and PC of about 120 pmol or 15 pmol) in water, the solution was left to stand in the PVLA-coated well. After the wells were coated with PC-BSA and blocked with BSA, they were then washed six times with TBS (200 μl). […]

[2] = molecular target: PC58-BSA (conjugate with 58 phosphorylcholine molecules on average bound per one bovine serum albumin molecule) (bovine) (UniProt P02769); test: quantitative precipitation at saturation, 20 µg PC58-BSA with 50 µg CRP
Chain of PC58-BSA (conjugate with 58 phosphorylcholine molecules on average bound per one bovine serum albumin molecule) (bovine) (P02769 25-607 limits assumed, form in doubt): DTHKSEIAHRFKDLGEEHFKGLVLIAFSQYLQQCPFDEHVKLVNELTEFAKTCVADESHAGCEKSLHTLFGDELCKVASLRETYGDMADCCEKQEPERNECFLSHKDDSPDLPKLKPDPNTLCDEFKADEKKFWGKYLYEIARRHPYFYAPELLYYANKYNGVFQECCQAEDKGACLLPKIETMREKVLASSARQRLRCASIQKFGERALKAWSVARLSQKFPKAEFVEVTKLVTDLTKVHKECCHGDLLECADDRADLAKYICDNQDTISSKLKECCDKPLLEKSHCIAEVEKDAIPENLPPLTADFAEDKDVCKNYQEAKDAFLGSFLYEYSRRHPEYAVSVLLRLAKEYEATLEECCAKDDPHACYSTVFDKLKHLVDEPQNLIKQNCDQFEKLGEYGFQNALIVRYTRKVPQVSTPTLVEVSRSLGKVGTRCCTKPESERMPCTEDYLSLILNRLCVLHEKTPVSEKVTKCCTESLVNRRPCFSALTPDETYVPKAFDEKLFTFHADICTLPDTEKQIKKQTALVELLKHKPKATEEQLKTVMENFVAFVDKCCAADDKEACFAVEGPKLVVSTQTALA

anti-CRP antibody (IgG) bound per PC-BSA-coated well [1]: 5.6 fmol per well
Molecule: PC58-BSA: conjugate where 58 PC molecules on average are bound per one BSA molecule

anti-CRP antibody (IgG) bound per PC-BSA-coated well [1]: 2.2 fmol per well
Molecule: PC7-BSA: PC conjugate of bovine serum albumin (BSA) produced by the previously reported method

amount of CRP in the precipitate [2]: 0.37 nmol
amount of PC58-BSA in the precipitate [2]: 0.17 nmol
ratio PC58-BSA:CRP in the precipitate (mol CRP (pentamer) per mol PC58-BSA) [2]: 2.2
B1: Recombinant human C-reactive protein (rhCRP) expressed in Escherichia coli (protein, UniProt P02741 19-224, looked up)
chain: T1 sequence (P02741 19-224)
